# Measurements published in publication PMC2962499.
# Columns and labels:
# [1] = biological target: Schizosaccharomyces pombe Rpn10, full-length (residues 1-243) (Schizosaccharomyces pombe) (UniProt O94444); experiment: ITC
# [2] = biological target: Schizosaccharomyces pombe Rpn10, full-length (residues 1-243) (Schizosaccharomyces pombe) (UniProt O94444); experiment: AUC
# [3] = biological target: Schizosaccharomyces pombe Rpn10, full-length (residues 1-243) (Schizosaccharomyces pombe) (UniProt O94444); experiment: SPR
# Schizosaccharomyces pombe Rpn10, full-length (residues 1-243) (Schizosaccharomyces pombe), sequence (O94444 whole entry, the tested form may be a part): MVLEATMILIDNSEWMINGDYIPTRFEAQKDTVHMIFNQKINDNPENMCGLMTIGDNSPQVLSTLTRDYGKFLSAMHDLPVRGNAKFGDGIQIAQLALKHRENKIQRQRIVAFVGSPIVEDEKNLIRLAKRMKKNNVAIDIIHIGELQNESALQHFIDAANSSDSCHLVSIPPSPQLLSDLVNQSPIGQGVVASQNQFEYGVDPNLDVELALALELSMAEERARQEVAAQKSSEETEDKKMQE
Kd [1],stoichiometry N [1],stoichiometry N [2],Kd [3],KD of each of the two equivalent sites [1],Substance
13.9 µM,1,1,35 µM,,Lys48-linked diubiquitin (from UniProt P0CG47 1-76; P0CG47 1-76)
,,1,,134 µM,Lys63-linked diubiquitin (from UniProt P0CG47 1-76; P0CG47 1-76)
